According to paper PMC13397619:

B1: NLV3 TCR beta chain (CDR3β only) (parent)
chain: ASSPTGGSPSPLH
partner: NLCPMVATV

Variants of: B1
Assay: T-Switch: Jurkat TCRβ−/− cells expressing a CDR3 saturation-mutagenesis library, stained with two peptide-HLA-A*02:01 tetramers (original and novel peptide) plus anti-CD3, FACS-sorted into four gates, gDNA sequenced
Settings: with HLA-A*02:01 with peptide … (NLV 2-1, the novel peptide), tetramers 1 µg/mL, 30 min on ice, SP, DP and SW gates expanded about 10 days between rounds ('two to three rounds of selection' in the Methods), gate SW: higher = more of the variant in the gate that binds the novel peptide and not the original one = switched binding. Fold enrichment of the CDR3 variant in one FACS gate of a two-tetramer stain, unresolved parent, parent is a CDR3 fragment, scale: fold enrichment, numbering: sequential-on-construct, sequence starts at 1

Variant | enrichment
[…] (CDR3 as printed); P11S derived by comparing it with the table's wild-type CDR3 ASSPTGGSPSPLH | 0
[…] (CDR3 as printed); S2E derived by comparing it with the table's wild-type CDR3 ASSPTGGSPSPLH | 0
[…] (CDR3 as printed); P4E derived by comparing it with the table's wild-type CDR3 ASSPTGGSPSPLH | 0
[…] (CDR3 as printed); H13W derived by comparing it with the table's wild-type CDR3 ASSPTGGSPSPLH | 0
[…] (CDR3 as printed); P9Y derived by comparing it with the table's wild-type CDR3 ASSPTGGSPSPLH | 0
[…] (CDR3 as printed); P11I derived by comparing it with the table's wild-type CDR3 ASSPTGGSPSPLH | 0
[…] (CDR3 as printed); G6Y derived by comparing it with the table's wild-type CDR3 ASSPTGGSPSPLH | 0
[…] (CDR3 as printed); H13V derived by comparing it with the table's wild-type CDR3 ASSPTGGSPSPLH | 0
[…] (CDR3 as printed); G7D derived by comparing it with the table's wild-type CDR3 ASSPTGGSPSPLH | 0
[…] (CDR3 as printed); L12P derived by comparing it with the table's wild-type CDR3 ASSPTGGSPSPLH | 0
[…] (CDR3 as printed); P4Y derived by comparing it with the table's wild-type CDR3 ASSPTGGSPSPLH | 0
[…] (CDR3 as printed); S2C derived by comparing it with the table's wild-type CDR3 ASSPTGGSPSPLH | 0
[…] (CDR3 as printed); A1W derived by comparing it with the table's wild-type CDR3 ASSPTGGSPSPLH | 0
[…] (CDR3 as printed); G6R derived by comparing it with the table's wild-type CDR3 ASSPTGGSPSPLH | 0
[…] (CDR3 as printed); H13D derived by comparing it with the table's wild-type CDR3 ASSPTGGSPSPLH | 0
[…] (CDR3 as printed); S2A derived by comparing it with the table's wild-type CDR3 ASSPTGGSPSPLH | 0
[…] (CDR3 as printed); P11D derived by comparing it with the table's wild-type CDR3 ASSPTGGSPSPLH | 0
[…] (CDR3 as printed); H13I derived by comparing it with the table's wild-type CDR3 ASSPTGGSPSPLH | 0
[…] (CDR3 as printed); P9I derived by comparing it with the table's wild-type CDR3 ASSPTGGSPSPLH | 0
[…] (CDR3 as printed); G6H derived by comparing it with the table's wild-type CDR3 ASSPTGGSPSPLH | 0
[…] (CDR3 as printed); G7H derived by comparing it with the table's wild-type CDR3 ASSPTGGSPSPLH | 0
[…] (CDR3 as printed); G6Q derived by comparing it with the table's wild-type CDR3 ASSPTGGSPSPLH | 0
[…] (CDR3 as printed); L12Q derived by comparing it with the table's wild-type CDR3 ASSPTGGSPSPLH | 0
[…] (CDR3 as printed); A1E derived by comparing it with the table's wild-type CDR3 ASSPTGGSPSPLH | 0
[…] (CDR3 as printed); G6P derived by comparing it with the table's wild-type CDR3 ASSPTGGSPSPLH | 0
[…] (CDR3 as printed); A1G derived by comparing it with the table's wild-type CDR3 ASSPTGGSPSPLH | 0

Variant | enrichment
[…] (CDR3 as printed); P11Y derived by comparing it with the table's wild-type CDR3 ASSPTGGSPSPLH | 0
[…] (CDR3 as printed); P9S derived by comparing it with the table's wild-type CDR3 ASSPTGGSPSPLH | 0
[…] (CDR3 as printed); G7K derived by comparing it with the table's wild-type CDR3 ASSPTGGSPSPLH | 0
[…] (CDR3 as printed); G7T derived by comparing it with the table's wild-type CDR3 ASSPTGGSPSPLH | 0
[…] (CDR3 as printed); L12R derived by comparing it with the table's wild-type CDR3 ASSPTGGSPSPLH | 0
[…] (CDR3 as printed); S2H derived by comparing it with the table's wild-type CDR3 ASSPTGGSPSPLH | 0
[…] (CDR3 as printed); A1M derived by comparing it with the table's wild-type CDR3 ASSPTGGSPSPLH | 0
[…] (CDR3 as printed); A1F derived by comparing it with the table's wild-type CDR3 ASSPTGGSPSPLH | 0
[…] (CDR3 as printed); G7E derived by comparing it with the table's wild-type CDR3 ASSPTGGSPSPLH | 0
[…] (CDR3 as printed); G7L derived by comparing it with the table's wild-type CDR3 ASSPTGGSPSPLH | 0
[…] (CDR3 as printed); P11H derived by comparing it with the table's wild-type CDR3 ASSPTGGSPSPLH | 0
[…] (CDR3 as printed); G6A derived by comparing it with the table's wild-type CDR3 ASSPTGGSPSPLH | 0
[…] (CDR3 as printed); H13M derived by comparing it with the table's wild-type CDR3 ASSPTGGSPSPLH | 0
[…] (CDR3 as printed); P11R derived by comparing it with the table's wild-type CDR3 ASSPTGGSPSPLH | 0
[…] (CDR3 as printed); A1P derived by comparing it with the table's wild-type CDR3 ASSPTGGSPSPLH | 0
[…] (CDR3 as printed); A1H derived by comparing it with the table's wild-type CDR3 ASSPTGGSPSPLH | 0
[…] (CDR3 as printed); H13T derived by comparing it with the table's wild-type CDR3 ASSPTGGSPSPLH | 0
[…] (CDR3 as printed); L12K derived by comparing it with the table's wild-type CDR3 ASSPTGGSPSPLH | 0
[…] (CDR3 as printed); P9D derived by comparing it with the table's wild-type CDR3 ASSPTGGSPSPLH | 0
[…] (CDR3 as printed); L12C derived by comparing it with the table's wild-type CDR3 ASSPTGGSPSPLH | 0
[…] (CDR3 as printed); S2F derived by comparing it with the table's wild-type CDR3 ASSPTGGSPSPLH | 0
[…] (CDR3 as printed); H13G derived by comparing it with the table's wild-type CDR3 ASSPTGGSPSPLH | 0
[…] (CDR3 as printed); P4N derived by comparing it with the table's wild-type CDR3 ASSPTGGSPSPLH | 0
[…] (CDR3 as printed); P4H derived by comparing it with the table's wild-type CDR3 ASSPTGGSPSPLH | 0
[…] (CDR3 as printed); G6K derived by comparing it with the table's wild-type CDR3 ASSPTGGSPSPLH | 0
[…] (CDR3 as printed); G6E derived by comparing it with the table's wild-type CDR3 ASSPTGGSPSPLH | 0

Variant | enrichment
[…] (CDR3 as printed); P4D derived by comparing it with the table's wild-type CDR3 ASSPTGGSPSPLH | 0
[…] (CDR3 as printed); H13N derived by comparing it with the table's wild-type CDR3 ASSPTGGSPSPLH | 0
[…] (CDR3 as printed); P11G derived by comparing it with the table's wild-type CDR3 ASSPTGGSPSPLH | 0
[…] (CDR3 as printed); G6C derived by comparing it with the table's wild-type CDR3 ASSPTGGSPSPLH | 0
[…] (CDR3 as printed); P9Q derived by comparing it with the table's wild-type CDR3 ASSPTGGSPSPLH | 0
[…] (CDR3 as printed); P9M derived by comparing it with the table's wild-type CDR3 ASSPTGGSPSPLH | 0
[…] (CDR3 as printed); G7S derived by comparing it with the table's wild-type CDR3 ASSPTGGSPSPLH | 0
[…] (CDR3 as printed); G7C derived by comparing it with the table's wild-type CDR3 ASSPTGGSPSPLH | 0
[…] (CDR3 as printed); H13E derived by comparing it with the table's wild-type CDR3 ASSPTGGSPSPLH | 0
[…] (CDR3 as printed); H13P derived by comparing it with the table's wild-type CDR3 ASSPTGGSPSPLH | 0
[…] (CDR3 as printed); G7Y derived by comparing it with the table's wild-type CDR3 ASSPTGGSPSPLH | 0
[…] (CDR3 as printed); G6D derived by comparing it with the table's wild-type CDR3 ASSPTGGSPSPLH | 0
[…] (CDR3 as printed); H13A derived by comparing it with the table's wild-type CDR3 ASSPTGGSPSPLH | 0
[…] (CDR3 as printed); S2G derived by comparing it with the table's wild-type CDR3 ASSPTGGSPSPLH | 0
[…] (CDR3 as printed); A1C derived by comparing it with the table's wild-type CDR3 ASSPTGGSPSPLH | 0
[…] (CDR3 as printed); L12H derived by comparing it with the table's wild-type CDR3 ASSPTGGSPSPLH | 0
[…] (CDR3 as printed); P9E derived by comparing it with the table's wild-type CDR3 ASSPTGGSPSPLH | 0
[…] (CDR3 as printed); P9T derived by comparing it with the table's wild-type CDR3 ASSPTGGSPSPLH | 0
[…] (CDR3 as printed); P11F derived by comparing it with the table's wild-type CDR3 ASSPTGGSPSPLH | 0
[…] (CDR3 as printed); H13K derived by comparing it with the table's wild-type CDR3 ASSPTGGSPSPLH | 0
[…] (CDR3 as printed); P4I derived by comparing it with the table's wild-type CDR3 ASSPTGGSPSPLH | 0
[…] (CDR3 as printed); A1T derived by comparing it with the table's wild-type CDR3 ASSPTGGSPSPLH | 0
[…] (CDR3 as printed); S2I derived by comparing it with the table's wild-type CDR3 ASSPTGGSPSPLH | 0
[…] (CDR3 as printed); P4K derived by comparing it with the table's wild-type CDR3 ASSPTGGSPSPLH | 0
[…] (CDR3 as printed); P9H derived by comparing it with the table's wild-type CDR3 ASSPTGGSPSPLH | 0
[…] (CDR3 as printed); H13F derived by comparing it with the table's wild-type CDR3 ASSPTGGSPSPLH | 0

Variant | enrichment
[…] (CDR3 as printed); P11K derived by comparing it with the table's wild-type CDR3 ASSPTGGSPSPLH | 0
[…] (CDR3 as printed); G6F derived by comparing it with the table's wild-type CDR3 ASSPTGGSPSPLH | 0
[…] (CDR3 as printed); P4W derived by comparing it with the table's wild-type CDR3 ASSPTGGSPSPLH | 0
[…] (CDR3 as printed); P4F derived by comparing it with the table's wild-type CDR3 ASSPTGGSPSPLH | 0
[…] (CDR3 as printed); H13L derived by comparing it with the table's wild-type CDR3 ASSPTGGSPSPLH | 0
[…] (CDR3 as printed); G6S derived by comparing it with the table's wild-type CDR3 ASSPTGGSPSPLH | 0
[…] (CDR3 as printed); P9A derived by comparing it with the table's wild-type CDR3 ASSPTGGSPSPLH | 0
[…] (CDR3 as printed); P9W derived by comparing it with the table's wild-type CDR3 ASSPTGGSPSPLH | 0
[…] (CDR3 as printed); H13S derived by comparing it with the table's wild-type CDR3 ASSPTGGSPSPLH | 0
[…] (CDR3 as printed); P11E derived by comparing it with the table's wild-type CDR3 ASSPTGGSPSPLH | 0
[…] (CDR3 as printed); P9L derived by comparing it with the table's wild-type CDR3 ASSPTGGSPSPLH | 0
[…] (CDR3 as printed); A1V derived by comparing it with the table's wild-type CDR3 ASSPTGGSPSPLH | 0
[…] (CDR3 as printed); P9C derived by comparing it with the table's wild-type CDR3 ASSPTGGSPSPLH | 0
[…] (CDR3 as printed); H13R derived by comparing it with the table's wild-type CDR3 ASSPTGGSPSPLH | 0
[…] (CDR3 as printed); P11Q derived by comparing it with the table's wild-type CDR3 ASSPTGGSPSPLH | 0
[…] (CDR3 as printed); P4G derived by comparing it with the table's wild-type CDR3 ASSPTGGSPSPLH | 0
[…] (CDR3 as printed); G7Q derived by comparing it with the table's wild-type CDR3 ASSPTGGSPSPLH | 0
[…] (CDR3 as printed); P9K derived by comparing it with the table's wild-type CDR3 ASSPTGGSPSPLH | 0
[…] (CDR3 as printed); A1K derived by comparing it with the table's wild-type CDR3 ASSPTGGSPSPLH | 0
[…] (CDR3 as printed); P9R derived by comparing it with the table's wild-type CDR3 ASSPTGGSPSPLH | 0
[…] (CDR3 as printed); P9F derived by comparing it with the table's wild-type CDR3 ASSPTGGSPSPLH | 0
[…] (CDR3 as printed); H13Q derived by comparing it with the table's wild-type CDR3 ASSPTGGSPSPLH | 0
[…] (CDR3 as printed); G7F derived by comparing it with the table's wild-type CDR3 ASSPTGGSPSPLH | 0
